Consider two substances from paper PMC5260909.

Assay [1] deals with NMDAR of rat GluN1-1b WT with WT GluN2A, on transfected HEK-293 cells (rat) (UniProt Q00959).
Assay [2] concerns the target Endogenous NMDAR (GluN1 subunit) of mouse cortical neurons and mouse brain (mouse (endogenous in cortical neurons of Swiss mice)) (UniProt P35438).
Assay [3] concerns the target NMDAR of rat GluN1-1b WT with WT GluN2A, on transfected HEK-293 cells (rat) (UniProt Q00959). The source holds these as a separate data set.

UniProt Q00959, sequence (Q00959 whole entry, looked up): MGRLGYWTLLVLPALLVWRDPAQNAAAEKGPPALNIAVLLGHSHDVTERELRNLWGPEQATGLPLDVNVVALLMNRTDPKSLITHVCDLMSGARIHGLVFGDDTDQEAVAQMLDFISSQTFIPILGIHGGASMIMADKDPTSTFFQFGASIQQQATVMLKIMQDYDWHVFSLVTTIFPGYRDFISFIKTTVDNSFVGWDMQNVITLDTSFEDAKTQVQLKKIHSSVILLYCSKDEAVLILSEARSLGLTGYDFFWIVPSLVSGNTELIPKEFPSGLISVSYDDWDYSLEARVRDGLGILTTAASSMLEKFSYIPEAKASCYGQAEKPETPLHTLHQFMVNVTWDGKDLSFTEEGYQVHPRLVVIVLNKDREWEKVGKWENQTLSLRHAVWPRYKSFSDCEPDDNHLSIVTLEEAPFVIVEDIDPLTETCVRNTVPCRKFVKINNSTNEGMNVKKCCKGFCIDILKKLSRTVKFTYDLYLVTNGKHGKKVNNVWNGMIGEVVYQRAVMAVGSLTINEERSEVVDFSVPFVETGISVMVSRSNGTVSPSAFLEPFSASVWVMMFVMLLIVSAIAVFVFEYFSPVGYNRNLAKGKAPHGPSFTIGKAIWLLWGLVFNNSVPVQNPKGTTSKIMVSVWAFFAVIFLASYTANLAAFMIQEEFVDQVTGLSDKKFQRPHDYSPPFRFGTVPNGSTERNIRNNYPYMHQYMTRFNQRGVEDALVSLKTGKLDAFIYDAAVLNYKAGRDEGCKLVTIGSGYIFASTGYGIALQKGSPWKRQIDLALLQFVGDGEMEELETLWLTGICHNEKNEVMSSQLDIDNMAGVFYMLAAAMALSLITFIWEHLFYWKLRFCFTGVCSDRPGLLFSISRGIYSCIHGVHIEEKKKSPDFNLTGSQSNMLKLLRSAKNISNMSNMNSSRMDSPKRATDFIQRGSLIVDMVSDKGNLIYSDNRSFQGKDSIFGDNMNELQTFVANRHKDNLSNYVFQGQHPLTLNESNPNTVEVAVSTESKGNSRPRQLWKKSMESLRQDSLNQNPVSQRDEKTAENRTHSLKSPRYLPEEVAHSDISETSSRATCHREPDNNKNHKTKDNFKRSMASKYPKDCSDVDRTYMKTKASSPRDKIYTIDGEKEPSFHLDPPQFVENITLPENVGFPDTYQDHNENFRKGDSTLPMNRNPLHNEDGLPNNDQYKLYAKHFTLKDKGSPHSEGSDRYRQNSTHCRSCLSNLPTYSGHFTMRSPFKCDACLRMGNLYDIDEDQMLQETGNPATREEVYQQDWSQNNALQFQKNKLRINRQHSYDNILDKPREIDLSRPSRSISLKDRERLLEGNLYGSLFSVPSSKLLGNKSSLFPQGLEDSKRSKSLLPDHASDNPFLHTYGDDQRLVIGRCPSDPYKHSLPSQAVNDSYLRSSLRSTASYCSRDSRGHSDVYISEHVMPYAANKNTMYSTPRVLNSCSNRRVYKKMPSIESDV

With “Human tissue-type plasminogen activator (tPA, Actilyse) (enzyme)”, the NMDA-induced calcium influx (Fura-2 video imaging) in HEK-293 cells transfected with GluN1-1b WT and GluN2A; potentiation after 20 min with tPA 300 nM (% of potentiation) in assay [1] is 27. In assay [2], the NMDA-induced calcium influx (Fura-2 video imaging) in primary cultures of mouse cortical neurons; potentiation after 45 min with tPA 300 nM was determined as 31% and the NMDA-induced calcium influx in primary cultures of mouse cortical neurons; tPA 300 nM together with the antibody of clone 6C9B6 10 μg/ml (% of potentiation) turned out to be 38.
Consider “WT rat tissue-type plasminogen activator (tPA WT), expressed in HEK-293 cells (from UniProt P19637 33-559) (enzyme)”, for which the NMDA-induced calcium influx in HEK-293 cells transfected with GluN1-1b WT, GluN2A and tPA WT; change after 20 min with the antibody Glunomab 10 μg/ml (% of potentiation) in assay [3] was -18.
